Experimental data taken from patent US20240287194A1, “Targeting Extracellular Matrix Proteins to Regulate NK Cell Function in Peripheral Tissues” (The General Hospital Corporation, priority 2021, published 2024).

Legend:
Format in all cases: cell-based, mice
splenic cNK cells [1] = assay: Phospho-signaling in splenic cNK cells stimulated with H2O2 in the presence of ECM proteins; conditions: baseline and 2- and 5-minute exposure to H2O2
Protocol: (§1) Single-cell suspensions from all samples were prepared by straining through a 70 μm filter. 2.4G2 supernatant treated cells were stained in 1×PBS/2% FCS/5 mM EDTA with the appropriate surface antibodies (Table 2) for 30 minutes at 4° C., washed and analyzed by flow cytometry. For intracellular staining, cells were fixed and permeabilized using True-Nuclear Transcription Buffer set (Biolegend, catalog no. 424401) according to the manufacturer's protocol then incubated with appropriate antibodies (Table 2) for 60 min at RT, washed and analyzed by flow cytometry. For in vitro signaling experiments, following the specified time points, cells were fixed with an equal volume of pre-warmed 1×aldehyde based fixation buffer (Biolegend, catalog no. 420801) for 20 min at RT. Fixed cells were permeabilized by drop-wise addition of chilled methanol-based solution True-Phos Perm Buffer (Biolegend, catalog no. 425401) while mixed on a vortex. Cells were stored in-20° C. and dark for 1-3 days before washing them two times with ˜3 mL of 1×PBS/2% FCS/5 mM EDTA. Cells were subsequently stained with appropriate antibodies against surface markers and specific phosphorylated signaling proteins (Table 2) for 60 min at RT, washed and analyzed by flow cytometry. Cells were assayed on a BD LSRFortessa X-20 flow cytometer (BD Bioscience, Billerica, MA, USA) and data were analyzed using FlowJo software Version 10 (Tree Star, Ashlad, OR, USA). NK cells in WT non-reporting mice were identified as CD3^− NK1.1^+NKp46^+.
(§2) For in vitro experiments in the presence of ECM components, Collagen I (Rat tail, Sigma, catalog no. 08-115), collagen III (Human placenta, Sigma, catalog no. C4407), collagen IV (Mouse, Sigma, catalog no. C0543), Elastin (Mouse lung, Sigma, catalog no. E6402), Laminin (Mouse, Thermo Fisher, catalog no. 23017015) and Fibronectin (Rat plasma, Sigma, catalog no. F0635) were diluted in 1×PBS and coated at 20 μ ENREF 45 g/cm^2 in a 24 well tissue culture plate for 30 minutes at RT with gentle shaking followed by overnight at 4° C. Spleens from Ncr1^iCre, ROSA^mT-mG, WT or Lair1^−/− mice were harvested as described above. Then, 5×10^6 splenocytes resuspended in RPMI 10% FBS/1% P/S/20 mM Glutamine were mixed with 20 μg of respective ECM protein per well and were incubated at RT for 10 minutes. Splenocytes and ECM mix were plated onto the ECM-coated well and were incubated at 37° C./5% CO2 for 2 hours (short ECM exposure) or 17 hours (long ECM exposure). At the end of the incubation, 1×10^5 MEF (WT or m157) cells were added to each well to obtain a 50:1 splenocyte:MEF ratio. For cell signaling experiments, hydrogen peroxide (H2O2) at a final concentration of 2.5 mM or 1×10^5 MEF-m157 cells were added to each well except in “0 min” wells which were unstimulated and fixed immediately. Splenocytes were stimulated with 2.5 mM H2O2 for 2 min and 5 min or were co-cultured with MEF-m157 for 30 min and 60 min (signaling) or 7 hours (CD107a and IFN[…]) at 37° C./5% CO2. Splenocytes and MEF in co-culture were supplemented with mIL-12 (10 ng/mL, Biolegend, catalog no. 577002), mIL-15 (1 ng/mL, Shenandoah Biotechnology, catalog no. 200-07) and hIL-2 (Biolegend, catalog no. 589104; only long ECM exposure) as well as for CD107a/IFN experiments. 1 μL of anti-CD107a-BV421 (1D4B, Biolegend, catalog no. 121618), 1×Brefeldin A (Biolegend, catalog no. 420601) and 1×Monensin (Biolegend, catalog no. 420701) were added. Following the co-culture, cells were washed with 1×PBS/2% FCS/5 mM EDTA and the pellet was resuspended in 2.4G2 blocking solution before flow cytometry staining.

splenic cNK cells [2] = assay: LEGENDplex chemokine release by splenic NK cells co-cultured with m157-MEF on ECM proteins; conditions: for CCL5 release by splenic cNK cells / CXCL10 release by splenic cNK cells: 12 hours
Protocol: NK cells purified from spleens under sterile conditions were used for LEGENDplex experiments. Spleens from 8-9-week-old C57BL/6 female WT mice were harvested and mashed through a 70 μm filter. Cells were resuspended in RBC lysis for two minutes and washed with 1×PBS/2% FCS/5 mM EDTA. NK cells were enriched by negative selection using an NK cell isolation kit (Milteny Biotec, catalog no. 130-115-818) and magnetic LS columns (Milteny Biotec, catalog no. 130-042-401) according to the manufacturer's instructions. Enrichment of isolated NK cells was confirmed by flow cytometry and was 88-90% CD3^−NK1.1^+NKp46^+ cells. Enriched NK cells were resuspended in RPMI 1640 media supplemented with 10% FBS and 1% P/S.
ECM protein coating on wells was performed as previously described. 1×10^5 enriched splenic NK cells was mixed with 20 μg of respective ECM protein per well in RPMI 1640/10% FBS/1% P/S/20 mM Glutamine and incubated at RT for 10 minutes. NK cells and ECM mix were plated onto the ECM-coated well and were incubated at 37° C./5% CO2 for 2 hours. At the end of the incubation, 1×10^5 MEF (WT or m157) cells were added to the respective wells to obtain a 1:1 NK:MEF ratio. NK cells and MEF were co-cultured at 37° C. 5% CO2 for 24 hours supplemented with mIL-12 (10 ng/mL, Biolegend, catalog no. 577002) and mIL-15 (1 ng/ml, Shenandoah Biotechnology, catalog no. 200-07-100 μg). The supernatant was collected at 12- and 24-hour intervals, centrifuged to remove cells/cell debris and subsequently frozen at −80° C. until further use. Quantification of murine cytokines and chemokines (CCL2, CCL5, CXCL9, CXCL10) in supernatants was performed with LEGENDplex kits (Biolegend, catalog nos. 740451, 740622) according to manufacturer's instructions. In brief, a mix of capture beads with distinct size and fluorescence was incubated with undiluted S/N or standard dilutions for 2 hours at RT with constant shaking. Beads were washed, a biotinylated detection antibody was added and the plate was incubated for 1 hour at RT with constant shaking. The streptavidin-PE conjugate was added and further incubated for 30 minutes at RT on a shaker. Beads were washed and subsequently acquired on a BD LSRFortessa X-20 flow cytometer. Analysis and quantification of the results were done using LEGENDplex data analysis software (BioLegend). Quantification was reported as pg/ml for CCL2, CCL5, CXCL10 and as MFI for CXCL9.

[3] = system: Ly49H^+ splenic cNK cells; assay: Splenic cNK cell co-culture with m157-MEF in the presence of ECM proteins (CD107a, IFNγ flow cytometry); conditions: for Ly49H+ cNK cell degranulation (CD107a): 9 and 24 hours co-culture with m157-MEF, ECM coated 20 μg/cm2
Protocol: as §1, §2

splenic cNK cells [4] = assay: Phospho-signaling in splenic cNK cells co-cultured with m157-MEF in the presence of ECM proteins
Protocol: as §1, with “Cells were stored in-20° C. and dark for 1-3 days before washing them two times with ˜3 mL of 1×PBS/2% FCS/5 mM EDTA.” left out, “NK cells in WT non-reporting mice were identified as CD3^− NK1.1^+NKp46^+.” left out

Molecule: collagen I: Collagen I (Rat tail, Sigma), dermal ECM protein
- pNFκB in NK cells (splenic cNK cells [1]): suppressive effect
- pSTAT3 in NK cells (splenic cNK cells [1]): suppressive effect
- CCL5 release by splenic cNK cells (splenic cNK cells [2]): suppressed
- CXCL10 release by splenic cNK cells (splenic cNK cells [2]): significantly induced
- CCL2 release by splenic cNK cells (splenic cNK cells [2]; 24 hours): significantly induced
- Ly49H+ cNK cell degranulation (CD107a) [3]: potently blocked
- IFNγ production by Ly49H+ cNK cells ([3]; exposed to m157-MEF, 9 and 24 hours): suppressed

B1: collagen III: collagen III (Human placenta, Sigma), dermal ECM protein (protein, UniProt P02461 154-1221, looked up)
Collagen alpha-1(III) chain: QYDSYDVKSGVAVGGLAGYPGPAGPPGPPGPPGTSGHPGSPGSPGYQGPPGEPGQAGPSGPPGPPGAIGPSGPAGKDGESGRPGRPGERGLPGPPGIKGPAGIPGFPGMKGHRGFDGRNGEKGETGAPGLKGENGLPGENGAPGPMGPRGAPGERGRPGLPGAAGARGNDGARGSDGQPGPPGPPGTAGFPGSPGAKGEVGPAGSPGSNGAPGQRGEPGPQGHAGAQGPPGPPGINGSPGGKGEMGPAGIPGAPGLMGARGPPGPAGANGAPGLRGGAGEPGKNGAKGEPGPRGERGEAGIPGVPGAKGEDGKDGSPGEPGANGLPGAAGERGAPGFRGPAGPNGIPGEKGPAGERGAPGPAGPRGAAGEPGRDGVPGGPGMRGMPGSPGGPGSDGKPGPPGSQGESGRPGPPGPSGPRGQPGVMGFPGPKGNDGAPGKNGERGGPGGPGPQGPPGKNGETGPQGPPGPTGPGGDKGDTGPPGPQGLQGLPGTGGPPGENGKPGEPGPKGDAGAPGAPGGKGDAGAPGERGPPGLAGAPGLRGGAGPPGPEGGKGAAGPPGPPGAAGTPGLQGMPGERGGLGSPGPKGDKGEPGGPGADGVPGKDGPRGPTGPIGPPGPAGQPGDKGEGGAPGLPGIAGPRGSPGERGETGPPGPAGFPGAPGQNGEPGGKGERGAPGEKGEGGPPGVAGPPGGSGPAGPPGPQGVKGERGSPGGPGAAGFPGARGLPGPPGSNGNPGPPGPSGSPGKDGPPGPAGNTGAPGSPGVSGPKGDAGQPGEKGSPGAQGPPGAPGPLGIAGITGARGLAGPPGMPGPRGSPGPQGVKGESGKPGANGLSGERGPPGPQGLPGLAGTAGEPGRDGNPGSDGLPGRDGSPGGKGDRGENGSPGAPGAPGHPGPPGPVGPAGKSGDRGESGPAGPAGAPGPAGSRGAPGPQGPRGDKGETGERGAAGIKGHRGFPGNPGAPGSPGPAGQQGAIGSPGPAGPRGPVGPSGPPGKDGTSGHPGPIGPPGPRGNRGERGSEGSPGHPGQPGPPGPPGAPGPCCGGVGAAAIAGIGGEKAGGFAPYYG
- pNFκB in NK cells (splenic cNK cells [1]): increased
- CCL5 release by splenic cNK cells (splenic cNK cells [2]): suppressed
- CXCL10 release by splenic cNK cells (splenic cNK cells [2]): significantly induced
- CCL2 release by splenic cNK cells (splenic cNK cells [2]; 24 hours): significantly induced
- CXCL9 release by cNK cells (splenic cNK cells [2]; 24 hours): induced
- phospho-NFκB (p65) in splenic cNK cells (splenic cNK cells [4]; after 30- and 60-minutes exposure to m157-MEF): highly amplified
- phospho-NFκB (p65) in splenic cNK cells (splenic cNK cells [4]; at baseline): significantly induced
- Ly49H+ cNK cell degranulation (CD107a) [3]: potently blocked
